Patent EP0607103A2, “Somatostatin analogs containing chelating groups and their radiolabeled compositions” (SANDOZ LTD., priority 1993, dated 1994)

Set-up: species or system rats
Settings: rat, in vivo
Description: The affinity of the CHELATES OF THE INVENTION for somatostatin receptors can also be shown by in vivo testing, according to standard test methods, e.g. as disclosed in GB-A-2, 225,579. For example the compound of Example 2 gives a tumor accumulation of 1.9 ± 0.4 % injected dose per g (n = 6) 4 hours after injection into rats bearing an exocrine pancreatic tumor.

C[C@@H](O)[C@@H]1NC(=O)[C@H](CCCCN)NC(=O)[C@@H](Cc2c[nH]c3ccccc23)NC(=O)[C@H](Cc2ccccc2)NC(=O)[C@@H](NC(=O)[C@@H](Cc2ccccc2)NC(=S)Nc2ccc(CC(CNCCN)CNCCN)cc2)CSSC[C@@H](C(=O)N[C@H](CO)[C@@H](C)O)NC1=O [Example 2, ^99mTc labelled compound of Example 1, metal not drawn]
tissue uptake at 4 h: 1.9 ± 0.4 %ID/g
